Experiment [1] has as its target T1, cynomolgus monkey BCMA (cynomolgus monkey, UniProt A0A2K5UD97 1-53).
T1 construct: Soluble analyte in SPR; construct not described; also called cyBCMA; Cyno BCMA
The experiment in a line: SPR, IgG immobilised, 25 C. The method, then: (§1) All experiments were performed on a Bio-Rad Proteon XPR36 surface Plasmon resonance biosensor (Bio-Rad, Hercules, Calif.). […] The analysis temperature for the immobilization was 25° C. and the running buffer was HBS-T+(10 mM HEPES, 150 mM NaCl, 0.05% Tween-20, pH 7.4). Channels were activated in the analyte (horizontal) direction by injecting a mixture of 1 mM ECD and 0.25 mM NHS for 3 minutes at a flow rate of 30 μL/min. IgGs were immobilized on the activated spots by injecting them in the ligand (vertical) direction at 20 μg/mL in 10 mM Acetate pH 4.5 buffer for 1.5 minutes at […]. The activated surfaces were blocked by injecting 1M ethanolamine, pH 8.5 in the analyte direction for 3 minutes at 30 μL/min.
(§2) The analysis temperature for the BCMA binding analysis was 37° C. or 25° C. in a running buffer of HBS-T+, supplemented with 1 mg/mL BSA. A kinetic titration method was employed for the interaction analysis as described in Abdiche, et al. Human BCMA (huBCMA) or cynomolgus monkey BCMA (cyBCMA) analyte was injected in the analyte direction using a series of injections from low to high concentration. The concentrations used were 0.08 nM, 0.4 nM, 2 nM, 10 nM and 50 nM (a 5-membered series, with a 5-fold dilution factor and top concentration of 50 nM). The association time for a given analyte dilution was two minutes. Immediately after the 50 nM BCMA injection, dissociation was monitored for 2 hours.
(§3) The sensorgrams were double-referenced and fit to a 1:1 Langmuir with mass transport kinetic titration model in BIAevaluation Software version 4.1.1 (GE Lifesciences, Piscataway, N.J.).
Background: Surface plasmon resonance follows binding to a sensor surface in real time, without labels.

In experiment [2] the target is T2, Human BCMA (human, UniProt Q02223 1-54, limits assumed).
T2 construct: Soluble analyte in SPR; construct not described; also called huBCMA; B-cell maturation antigen
T2 sequence (looked up): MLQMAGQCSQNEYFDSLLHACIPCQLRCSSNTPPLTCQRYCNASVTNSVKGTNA
In words: SPR, IgG immobilised, 25 C. Here is the method: as §1, §2, §3

Experiment [3] concerns the target T1, cynomolgus monkey BCMA. In words: SPR, IgG immobilised, 37 C. The procedure, abridged: (§4)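 Rate constants come from a 1:1 Langmuir model including mass transport, fitted to double-referenced sensorgrams. Analyte was human or cynomolgus BCMA in five rising concentrations up to 50 nM over amine-coupled IgG; runs were at 25° C or 37° C.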
For experiment [4], the target named is T2, Human BCMA. The experiment in a line: SPR, IgG immobilised, 37 C. The procedure, abridged: as §4

The term Kd denotes the free concentration of one partner at which half of the binding sites on the other are occupied at equilibrium, for simple one-to-one binding. Usually koff stands for a measure of how fast the partners let go of each other. The term kon denotes the second-order rate constant of association.

T1 sequence (A0A2K5UD97 entry or part of it): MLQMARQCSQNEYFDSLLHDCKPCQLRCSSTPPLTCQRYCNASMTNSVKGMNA

B1: L1.GDF/L3.KW/H3.AL (antibody, V domains shown)
VH: EVQLLESGGGLVQPGGSLRLSCAASGFTFGSYAMTWVRQAPGKGLEWVSAISGSGGNTFYADSVKGRFTISRDNSKNTLYLQMNSLRAEDTAVYYCARVSPIAALMDYWGQGTLVTVSS
VL: EIVLTQSPGTLSLSPGERATLSCRASQSVGDFYLAWYQQKPGQAPRLLIYGASSRATGIPDRFSGSGSGTDFTLTISRLEPEDFAVYYCKHYGWPPSFTFGQGTKVEIK
notes: IgG
For the molecule B1, in experiment [1], the dissociation constant Kd was found to be 56.7 nM, the “T ½” value came to 0.6 min, the koff is 0.018 s⁻¹ and the kon came out at 318000 M⁻¹ s⁻¹. Besides, in experiment [2], the Kd turned out to be 8.76 nM, the “T ½” value amounted to 2.96 min, the koff amounted to 0.0039 s⁻¹ and the kon came out at 445000 M⁻¹ s⁻¹.

B2: L3.PY/L3.KF/P6E01 (antibody, V domains shown)
VH: EVQLLESGGGLVQPGGSLRLSCAASGFTFGSYAMTWVRQAPGKGLEWVSAISGSGGNTFYADSVKGRFTISRDNSKNTLYLQMNSLRAEDTAVYYCARVSPIASGMDYWGQGTLVTVSS
VL: EIVLTQSPGTLSLSPGERATLSCRASQSVSSSYLAWYQQKPGQAPRLLIYGASSRATGIPDRFSGSGSGTDFTLTISRLEPEDFAVYYCKFYPYPPSFTFGQGTKVEIK
notes: IgG
As for B2, in experiment [3], binding was characterised by a dissociation constant (Kd) of 3.48 nM, the “T ½” value was determined as 1.39 min, the koff was 0.0083 s⁻¹ and the kon was 2.39e+06 M⁻¹ s⁻¹. Further, in experiment [4], binding was characterised by a dissociation constant (Kd) of 0.72 nM, the “T ½” value was 5.56 min, the koff was 0.00208 s⁻¹ and the kon came to 2.88e+06 M⁻¹ s⁻¹.

B3: L3.PY/L1.PS/H3.TAQ (antibody, V domains shown)
VH: EVQLLESGGGLVQPGGSLRLSCAASGFTFGSYAMTWVRQAPGKGLEWVSAISGSGGNTFYADSVKGRFTISRDNSKNTLYLQMNSLRAEDTAVYYCTRVSPIAAQMDYWGQGTLVTVSS
VL: EIVLTQSPGTLSLSPGERATLSCRASQSVSSSYPSWYQQKPGQAPRLLIYGASSRATGIPDRFSGSGSGTDFTLTISRLEPEDFAVYYCQHYPYPPSFTFGQGTKVEIK
notes: IgG
For B3, in experiment [3], the Kd turned out to be 2.14 nM, the “T ½” value came out at 2.09 min, the koff was 0.00552 s⁻¹ and the kon turned out to be 2.58e+06 M⁻¹ s⁻¹. Moreover, in experiment [4], the Kd was found to be 0.76 nM, the “T ½” value is 4.7 min, the koff was found to be 0.00246 s⁻¹ and the kon came out at 3.25e+06 M⁻¹ s⁻¹.

B4: L3.PY/L1.PS/H3.AE (antibody, V domains shown)
VH: EVQLLESGGGLVQPGGSLRLSCAASGFTFGSYAMTWVRQAPGKGLEWVSAISGSGGNTFYADSVKGRFTISRDNSKNTLYLQMNSLRAEDTAVYYCARVSPIAAEMDYWGQGTLVTVSS
VL: EIVLTQSPGTLSLSPGERATLSCRASQSVSSSYPSWYQQKPGQAPRLLIYGASSRATGIPDRFSGSGSGTDFTLTISRLEPEDFAVYYCQHYPYPPSFTFGQGTKVEIK
notes: IgG
B4: in experiment [3], the Kd is 1.68 nM, the “T ½” value was found to be 2.8 min, the dissociation rate constant (koff) is 0.00413 s⁻¹ and the kon came to 2.46e+06 M⁻¹ s⁻¹. In addition, in experiment [4], binding was characterised by a dissociation constant (Kd) of 0.46 nM, the “T ½” value was 7.93 min, the koff worked out at 0.00146 s⁻¹ and the kon came out at 3.14e+06 M⁻¹ s⁻¹.

B5: P6E01/P6E01 (antibody, V domains shown)
VH: EVQLLESGGGLVQPGGSLRLSCAASGFTFGSYAMTWVRQAPGKGLEWVSAISGSGGNTFYADSVKGRFTISRDNSKNTLYLQMNSLRAEDTAVYYCARVSPIASGMDYWGQGTLVTVSS
VL: not shown
notes: IgG
In the case of B5, in experiment [2], the Kd is 4 nM and the “T ½” value came to 2.8 min.

B6: L3.PY/L1.PS/H3.AQ (antibody, V domains shown)
VH: EVQLLESGGGLVQPGGSLRLSCAASGFTFGSYAMTWVRQAPGKGLEWVSAISGSGGNTFYADSVKGRFTISRDNSKNTLYLQMNSLRAEDTAVYYCARVSPIAAQMDYWGQGTLVTVSS
VL: EIVLTQSPGTLSLSPGERATLSCRASQSVSSSYPSWYQQKPGQAPRLLIYGASSRATGIPDRFSGSGSGTDFTLTISRLEPEDFAVYYCQHYPYPPSFTFGQGTKVEIK
notes: IgG
In the case of B6, in experiment [3], binding was put at a Kd of 1.72 nM, the “T ½” value was 2.67 min, the koff was 0.00433 s⁻¹ and the kon was found to be 2.52e+06 M⁻¹ s⁻¹. For the same molecule, in experiment [4], binding was put at a Kd of 0.55 nM, the “T ½” value turned out to be 6.46 min, the koff was determined as 0.00179 s⁻¹ and the kon amounted to 3.26e+06 M⁻¹ s⁻¹.

B7: L3.PY/L1.PS/P6E01 (antibody, V domains shown)
VH: EVQLLESGGGLVQPGGSLRLSCAASGFTFGSYAMTWVRQAPGKGLEWVSAISGSGGNTFYADSVKGRFTISRDNSKNTLYLQMNSLRAEDTAVYYCARVSPIASGMDYWGQGTLVTVSS
VL: EIVLTQSPGTLSLSPGERATLSCRASQSVSSSYPSWYQQKPGQAPRLLIYGASSRATGIPDRFSGSGSGTDFTLTISRLEPEDFAVYYCQHYPYPPSFTFGQGTKVEIK
notes: IgG
For the molecule B7, in experiment [3], the affinity, expressed as Kd, was 2.79 nM; the “T ½” value was found to be 1.91 min; the koff turned out to be 0.00606 s⁻¹; the kon is 2.17e+06 M⁻¹ s⁻¹. Also, in experiment [4], the Kd was found to be 0.45 nM, the “T ½” value was determined as 10.2 min, the koff is 0.00113 s⁻¹ and the kon is 2.49e+06 M⁻¹ s⁻¹.

B8: L1.GDF/L3.KW/H3.AP (antibody, V domains shown)
VH: EVQLLESGGGLVQPGGSLRLSCAASGFTFGSYAMTWVRQAPGKGLEWVSAISGSGGNTFYADSVKGRFTISRDNSKNTLYLQMNSLRAEDTAVYYCARVSPIAAPMDYWGQGTLVTVSS
VL: EIVLTQSPGTLSLSPGERATLSCRASQSVGDFYLAWYQQKPGQAPRLLIYGASSRATGIPDRFSGSGSGTDFTLTISRLEPEDFAVYYCKHYGWPPSFTFGQGTKVEIK
notes: IgG
As to B8, in experiment [1], binding was put at a Kd of 24.9 nM, the “T ½” value came to 0.6 min, the koff worked out at 0.0203 s⁻¹ and the kon amounted to 814000 M⁻¹ s⁻¹. In experiment [2], binding was characterised by a dissociation constant (Kd) of 3.93 nM, the “T ½” value amounted to 2.51 min, the koff was determined as 0.00461 s⁻¹ and the on-rate (kon) worked out at 1.17e+06 M⁻¹ s⁻¹.

B9: P6E01/H3.AQ (antibody, V domains shown)
VH: EVQLLESGGGLVQPGGSLRLSCAASGFTFGSYAMTWVRQAPGKGLEWVSAISGSGGNTFYADSVKGRFTISRDNSKNTLYLQMNSLRAEDTAVYYCARVSPIAAQMDYWGQGTLVTVSS
VL: not shown
notes: IgG
Turning to B9, in experiment [2], the Kd was determined as 0.41 nM and the “T ½” value was 33.5 min.

B10: L3.PY/L3.KY/P6E01 (antibody, V domains shown)
VH: EVQLLESGGGLVQPGGSLRLSCAASGFTFGSYAMTWVRQAPGKGLEWVSAISGSGGNTFYADSVKGRFTISRDNSKNTLYLQMNSLRAEDTAVYYCARVSPIASGMDYWGQGTLVTVSS
VL: EIVLTQSPGTLSLSPGERATLSCRASQSVSSSYLAWYQQKPGQAPRLLIYGASSRATGIPDRFSGSGSGTDFTLTISRLEPEDFAVYYCKYYPYPPSFTFGQGTKVEIK
notes: IgG
On to B10, for which, in experiment [3], binding was put at a Kd of 2.21 nM, the “T ½” value stood at 2.3 min, the koff worked out at 0.00502 s⁻¹ and the kon is 2.27e+06 M⁻¹ s⁻¹. In experiment [4], the Kd came to 0.34 nM, the “T ½” value was found to be 10.7 min, the koff turned out to be 0.00109 s⁻¹ and the kon worked out at 3.18e+06 M⁻¹ s⁻¹.

B11: L3.PY/L1.PS/H3.YA (antibody, V domains shown)
VH: EVQLLESGGGLVQPGGSLRLSCAASGFTFGSYAMTWVRQAPGKGLEWVSAISGSGGNTFYADSVKGRFTISRDNSKNTLYLQMNSLRAEDTAVYYCARVSPIYAGMDYWGQGTLVTVSS
VL: EIVLTQSPGTLSLSPGERATLSCRASQSVSSSYPSWYQQKPGQAPRLLIYGASSRATGIPDRFSGSGSGTDFTLTISRLEPEDFAVYYCQHYPYPPSFTFGQGTKVEIK
notes: IgG
B11: in experiment [3], the affinity, expressed as Kd, was 5.65 nM; the “T ½” value came out at 1.16 min; the koff came to 0.00998 s⁻¹; the kon stood at 1.77e+06 M⁻¹ s⁻¹. Also, in experiment [4], the affinity, expressed as Kd, was 2.95 nM; the “T ½” value amounted to 1.28 min; the koff came to 0.00905 s⁻¹; the kon was 3.07e+06 M⁻¹ s⁻¹.

B12: L3.PY/L1.PS/H2.YQ (antibody, V domains shown)
VH: EVQLLESGGGLVQPGGSLRLSCAASGFTFGSYAMTWVRQAPGKGLEWVSAISYQGGNTFYADSVKGRFTISRDNSKNTLYLQMNSLRAEDTAVYYCARVSPIASGMDYWGQGTLVTVSS
VL: EIVLTQSPGTLSLSPGERATLSCRASQSVSSSYPSWYQQKPGQAPRLLIYGASSRATGIPDRFSGSGSGTDFTLTISRLEPEDFAVYYCQHYPYPPSFTFGQGTKVEIK
notes: IgG
In the case of B12, in experiment [3], the Kd was determined as 1.87 nM, the “T ½” value turned out to be 3.09 min, the koff is 0.00374 s⁻¹ and the kon amounted to 2e+06 M⁻¹ s⁻¹. In experiment [4], the Kd came to 1.28 nM, the “T ½” value turned out to be 2.69 min, the koff worked out at 0.0043 s⁻¹ and the kon turned out to be 3.35e+06 M⁻¹ s⁻¹.

These data come from patent US20160297884A1 (Pfizer, published 2016).
